Measured values as given in the RNAGym collection of RNA variant scans (doi:10.1073/pnas.2313332121).

B1: TPR t1 (parent)
chain: GACCAAUCUGCCCUCAGAGCUCGAGAACAUCUUCGGAUGCAGAGGAGGCAGGCUUCGGUGGCGCGAUAGCGCCAACGUCCUCAACCUCCAAUGCAUCCCACCACAUGAUGAUGCCUGAAGAGCCUUGGUUUUUUG

Variants of: B1
Test: polymerase ribozyme fitness, log enrichment relative to wild type (log ratio); higher = more active; in vitro selection for triplet polymerase activity
How it was run: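 Mutant libraries of each subunit of a heterodimeric triplet polymerase ribozyme were built by PCR and transcribed. Each library went through one round of in vitro selection in triplicate: annealing with biotinylated primer, partner subunit and triplets, frozen incubation at −7 °C, gel excision of extended constructs, streptavidin-bead capture and RT-PCR. Input and output libraries were Illumina-sequenced; only genotypes with ≥10 input reads and ≥1 read per output were kept. Fitness is log2(genotype enrichment/wild-type enrichment), using inverse-variance-weighted replicate averages.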

In order of rising “polymerase ribozyme fitness (log ratio)” value:
1. C34G C53U C73U G113C C114G  -8.55
2. C31G U33A G48U C49U C72G A108U G120U  -8.14
3. C34G U59A G117U U129G  -8.01
4. C34G A43G C53A G71A A111C C123G  -7.9
5. U33G G69C C80G A91C U92A C101U C115G  -7.68
6. C31G C56G A68U U81A C99G G110C  -7.68
7. C34G A41C C56A A66U C115A  -7.59
8. C31A A37U G60A A83C  -7.59
9. G35A C72U C98A G117U  -7.49
10. C34G C89U  -7.42
11. U33C C99G U109A  -7.26
12. G35U G69A  -7.16
13. U33G G69A C70A A111U  -7.15
14. U33G G39U A50U C70U A84U A91C C114A  -7.12
15. C34G G61A G113U G122U  -7.08
16. U33A C72G A74C G127C  -7.04
17. U33A A50U G93C A95G C101G  -7.02
18. C34G C80U C89G G120C U129C  -6.96
19. C31G U109G C114G  -6.93
20. C31G C72A  -6.86
21. C34A G61A U112A C115U  -6.79
22. C34A G113C G117C  -6.74
23. C31G G69U A111C U112A G117A  -6.69
24. U33A G51A C72U U112A  -6.67
25. C34G A74U A90C U112G  -6.64
26. C31G C62U C114G G127U  -6.54
27. G35A C98G  -6.5
28. C34G A83G  -6.49
29. U33G G39A C72G A84G A111U  -6.45
30. U32A C40U U106A  -6.43
31. U33C C70G  -6.4
32. C31A C72U C123A U125G U129A U133G  -6.38
33. U32G C62A C102A A111G  -6.35
34. C31U A68G  -6.34
35. G35U G113A  -6.27
36. U30G G48A C49U C62U C85A A121G  -6.22
37. U32A A46U U54A G57C G58C C70U A121G  -6.21
38. U32G A119U  -6.21
39. C31A G45U C115G  -6.15
40. C31A A43G U59G C98G A100G A111G  -6.13
41. C34A G60A C72G C88U  -6.11
42. C34U U92A  -6.09
43. U33A G52U U112A  -6.07
44. C31A G44U G69A A100C U109G G135U  -6.04
45. G35C A46C C97U  -6.04
46. U33G C94A G113C G117A  -6.01
47. U32A C88G U125A  -5.98
48. C31U C94A C114U  -5.92
49. C34G A37U U55G C72G U92C C124A  -5.91
50. C34G C53U  -5.89
51. C34U A50U C102U U109A C124U  -5.84
52. G35A A37U U87G  -5.66
53. G35U A100U  -5.66
54. C34G U87A  -5.65
55. C34U C70U  -5.65
56. G36A C49A G110C  -5.65
57. G35U G47A  -5.64
58. G35A G42C  -5.64
59. G35C C88A  -5.61
60. C34A C40U C49A C62U U96G  -5.57
61. C31U C79G C124G  -5.57
62. U33A C53A C62U  -5.53
63. C34A G60A C115U  -5.48
64. C34G A46C U106A G110A U130G U131A  -5.46
65. U33A C64A G69C  -5.43
66. C31U U96G  -5.37
67. G35A G42A U106A U112G A121C G127U G128A  -5.37
68. C34G C73A  -5.35
69. C31U G63A  -5.33
70. C34U C85A A111U  -5.33
71. C34A G48A U59C C101A  -5.32
72. U32G A37G A74G A111U U133C  -5.3
73. C31U U78C  -5.28
74. U33C A37C G42U G69U A111C C115A G127C U133G  -5.26
75. G35C C79U C104A C124A  -5.25
76. C31A C73G  -5.21
77. C31U C85G  -5.19
78. U33A C72G  -5.17
79. C31U C82U  -5.12
80. C34A C72U C85A G113A  -5.11
81. C31U C86A  -5.09
82. C34U U59A U106A U109A G120A  -5.08
83. U33A G58A  -5.07
84. G35U C72A  -5.07
85. U33C C62U  -5.05
86. U32A A46C C64U U78G  -4.98
87. C34U G113C  -4.95
88. C34U C40U G42A A43G C104A U109A G135A  -4.93
89. C34U G44C U87A C89G C115A  -4.92
90. G35U C40U G61A C124U  -4.87
91. C34A G44C G69U C88A A91C G110A  -4.87
92. G35A C64U U87G  -4.86
93. U33G U55A  -4.84
94. C31U G44C G69U C115U U130A  -4.82
95. C34A C85A G113A  -4.78
96. U33A G52U C115A  -4.73
97. C31U A37G C115A  -4.73
98. C34G U106A  -4.72
99. C34A G69C  -4.71
100. C34U G61A  -4.7
101. C34G C99U U130A  -4.6
102. C31U C72U  -4.57
103. C34A C80U G127U  -4.5
104. U33G A50G A121C  -4.43
105. U32A A74C C114G  -4.4
106. C34U C72U U106A  -4.34
107. G36A G42A C72U  -4.34
108. C34U C86U C104U C114U  -4.34
109. C31U C70U  -4.33
110. C34U G47A  -4.25
111. G35A G57U A74U  -4.21
112. C31U C89U U96A U106G U112A U130C  -4.19
113. G35A A74C C101U  -4.16
114. U33G C124G  -4.16
115. C31U C72A  -4.11
116. C34U C56U  -4.1
117. C34A C76A  -4.09
118. G35A A46U A83U U87C C104U  -4.09
119. C34U C101A  -4.07
120. C34U G110U  -4.07
121. C34U C114U U131A  -4.04
122. G35C G120U  -3.99
123. G35A C53G C62U G77C A84C C124G G135C  -3.97
124. C34U C72A  -3.94
125. C34U C64U  -3.93
126. G36A G52C A95G G113A  -3.73
127. C31U G69U C98U A119G  -3.7
128. G35U C123A  -3.61
129. C31U G71U C124G  -3.59
130. U33A G47A A121U  -3.55
131. U33A G57U C124A U126A  -3.51
132. U33A C104U U112A  -3.5
133. C34A C82U C97G  -3.48
134. C31A A121U  -3.46
135. C31U G39A G69U G120U  -3.44
136. G36A C73G C101A U106C  -3.26
137. C34A U55C  -3.18
138. C34A G48U G61C C72G C94G A119G U133C  -3.16
139. C34A G135U  -3.05
140. U32C G60C U106A G113A C124U  -3.04
141. G36A G44A G77U A84U  -2.98
142. U32C C64U G93A C114G U134G  -2.93
143. G35U C123U  -2.85
144. G35A G69U C101G  -2.83
145. C34A C53G C56A  -2.83
146. C34A A84U  -2.81
147. C34A U54G C94U  -2.75
148. C34A C62U C85G U130C  -2.75
149. U32A G61U  -2.74
150. C34G G69U C123A  -2.45
151. C34A C104U  -2.35
152. U33G G69U  -2.25
153. U32C C76U A90U  -2.2
154. C34A C123A  -2.18
155. G36A G48U A84G  -2.02
156. U32C G69C  -2.01
157. G36A A66C G120U  -1.74
158. G36A C49A G60A A118G  -1.7
159. C34A G48U A121U  -1.3
160. G35U G69U C123A C124A  -1
161. G35A C40G C98U C123G  -0.89
162. U32C C40A  -0.464
163. C34A G69U  -0.154
164. U32C U87A  -0.0352
165. U32C C56U  0.1
166. G36A A121U G128A  0.119
167. G36A C124U  0.816
